Legend:
Test in all cases: ITC
XtTet3-CXXC = biological target: T1, XtTet3-CXXC (Xenopus tropicalis, UniProt A0JP82 58-99)
T1 chain: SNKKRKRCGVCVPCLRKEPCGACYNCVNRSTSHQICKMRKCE

mTet3-CXXC = biological target: T2, mTet3-CXXC (Mus musculus (mouse), UniProt Q8BG87 51-96)
T2 chain: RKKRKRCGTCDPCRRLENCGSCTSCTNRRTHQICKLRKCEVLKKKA

mTet3-CXXC Q82A = biological target: T3, mTet3-CXXC Q82A (Mus musculus (mouse), UniProt Q8BG87 51-96, Q82A)
T3 chain: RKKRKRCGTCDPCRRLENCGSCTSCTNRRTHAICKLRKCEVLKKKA

mTet3-CXXC T80A = biological target: T4, mTet3-CXXC T80A (Mus musculus (mouse), UniProt Q8BG87 51-96, T80A)
T4 chain: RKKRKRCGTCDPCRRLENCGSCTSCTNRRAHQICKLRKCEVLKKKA

mTet3-CXXC H81A = biological target: T5, mTet3-CXXC H81A (Mus musculus (mouse), UniProt Q8BG87 51-96, H81A)
T5 chain: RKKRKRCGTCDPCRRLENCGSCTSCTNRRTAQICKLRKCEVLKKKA

mTet3-CXXC K88A = biological target: T6, mTet3-CXXC K88A (Mus musculus (mouse), UniProt Q8BG87 51-96, K88A)
T6 chain: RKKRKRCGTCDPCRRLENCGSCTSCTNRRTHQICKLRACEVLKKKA

B1: ChmCG DNA (dsDNA)
DNA 1: GAATCCGGATTC
DNA 2: GAATCCGGATTC
modifications: 5-hydroxymethyl-dC at position 6 of both strands
B1 was tested. Which Kd (XtTet3-CXXC) did it give?
Its Kd is 18600 nM.

B2: CmCG DNA (dsDNA)
DNA 1: GAATCCGGATTC
DNA 2: GAATCCGGATTC
modifications: 5-methyl-dC at position 6 of both strands
What does the source list for B2?
Kd (mTet3-CXXC): 5590 nM; Kd (XtTet3-CXXC): 9000 nM

B3: hemi-CcaCG DNA (dsDNA)
DNA 1: GAATCCGGATTC
DNA 2: GAATCCGGATTC
modifications: 5-carboxyl-dC at position 6 of one strand only
For B3, which Kd (mTet3-CXXC) is on record?
Its Kd is 1570 nM.

B4: CfCG DNA (dsDNA)
DNA 1: GAATCCGGATTC
DNA 2: GAATCCGGATTC
modifications: 5-formyl-dC at position 6 of both strands
With B4 as the binder, how does the Kd (mTet3-CXXC) read?
Its Kd is 6130 nM.

What about the Kd (XtTet3-CXXC) of the same binder?
The Kd was 10400 nM.

B5: CcaCG DNA (dsDNA)
DNA 1: GAATCCGGATTC
DNA 2: GAATCCGGATTC
modifications: 5-carboxyl-dC at position 6 of both strands
Which results are given for B5?
Kd (mTet3-CXXC Q82A): 970 nM; Kd (mTet3-CXXC T80A): 910 nM; Kd (mTet3-CXXC): 560 nM; Kd (XtTet3-CXXC): 1300 nM; binding result (mTet3-CXXC H81A): no binding

B6: CCG DNA (dsDNA)
DNA 1: GAATCCGGATTC
DNA 2: GAATCCGGATTC
Which results are given for B6?
Kd (mTet3-CXXC Q82A): 2380 nM; Kd (mTet3-CXXC T80A): 1790 nM; Kd (mTet3-CXXC): 1880 nM; Kd (mTet3-CXXC K88A): 5320 nM; Kd (XtTet3-CXXC): 2580 nM; binding result (mTet3-CXXC H81A): no binding
